In a protein production outcome set (Wang et al. 2014):

Test: label from the status in PepcDB records

Sequence | protein production
MNKKRIVFGLLSFFLPIFLVFGGLLFFLLLLTSTSDTSKNDCIQPSINNPTDATDTPKSIEQFVKSHKDAYLLSWKAGGFLPSASISQTMVENGFNFTNPSGTSFWQAHNMGGVKTSKKEDFPVTLATFGQDSVDISGTKPGSNVGDGTGGAYTWFKDYNAGIVGKAEFMAHQTLYTGAINNTDGLSTLSAIYSGGWATDPTYLMKLQATYNSLGKQFQWLDQEAIQKYGNAPFKKSELVLNIPGKSPITNEKYGKNSDCVVTSDTSDQVTGQNTAPSLEVPSAYKGKLTLPPIDSNDYAGNNYPFGQCTWYAYNRMAQIGKPIEWFSGDGGNGAGWANSARAKGYTVVKVKPSVGWAASMQGGIGGSAPPYGHVAVVEYVNSDGSILVSEANVINQGSGTRSWRVLDRATVEQIDFIQGKGALEHHHHHH | failed
MIINITILEDNESDFITLSDSIKKWAANTGILINIIWLNSYKKFIKSLPTLKCDLFFSDIELNCNNSFTGIDACKQLRESGYTGIIIFLTAFKEYVFDGYDVQAFNYLLKPINYGTINNCLDKFIHLFSLEHHHHHH | not failed
MSIVIMFKYVSDVSNIYHNIITSFIENKNIAIDATLGNGHDCDFLSELFKKVYAFDIQEEAVNSYKSKNKENVEVILDSHENFETYIKEENVDCIVYNLGYLPGNNKEVTTVAHSTLKSIEIGLDLLGDNGLMIIALYSGHEEGKKEKDAVLQFTSKLPKNKYGVLHTEFTNRAKSAPSLVVIEKKFK | failed
MQITAAAQHDYQQAIAAYQAGEFEAAIAQLDRLLGDVPDWAAALGLQGLCYYCCDQRETGITLLRRAIALDPTDPTHFNNLGNLLQRQGHLTEALERLTQALAIDPTHVAARFNRAITLQKLGDPATALQDYQQLLEADPDNPEIRYNSAHAALAIGDWDFGLPAYEARCQQLQHFPEIEASLKLPRWQGQDLDQQTLLVWGEQGFGDRLMGARWIPLLRQRYPQARIVWQTSPSLVRLFQTLADDRLMVLAEGAELPVCDWQVPLLSLMLIFQSDRNRLPWHGPYFFPHKGDFLPASDRPRLGLVWSAGRNPAQSAEFAANKSCPLALLWSVLSVSGWDVVSLQVDEARQDLQTLSDPLLDLGSEIGDFQDTVDRLAHLDLLITVDTAIAHLGGMIGLPTWVLLPAVPDWRWELSGATTPWYPSLRLFRQPSPGDWSGAIAELQTALAEFQPAPQHWDYRGELSIADWIQAADRAFTAQNWPRAEWLIRQAVAIAPEEPSFHRALGRSLKQQGDYAGAAQALAIACELAPTQAEFWHERSSLEYYDNQLTAALNSLNQAIALQGATADHLISRGVLHYRLGQFPESCADYDAAAAIAPESPLLRCNRGFLQLHWGNWLQGWPDLEVRFDFQSDLDPFQYRQLAPAWQGEPLGQQTLLIWGEQGLGDHLLFCRWLPELRLQHPQAQLIFVTDPLLERLMQQLADDRLQICCLDEPVPACDRQVALMSLPAIAQTTPATVPWRGAYFQSSMPPLRCAETLQVGFVWASGKRSSPETARLYREKSCPLNELLPALLAVPAVDYYSFQVGADVAELQPWLEQSDRLFDLSEQLQDFQDTADWLAEMDVLISVDTAVANLAGMMALPVWTLLPEPANWRWGLTGHTTPWYPSMRLYRQTQRGNWSGAIAQIQQDLQQLSRDRDCLVT | failed
RIGDGSPSHPPILERTLDDVPGPPMGILFPEVRTTSVRLIWQPPAAPNGIILAYQITHRLNTTTANTATVEVLAPSARQYTATGLKPESVYLFRITAQTRKGWGEAAEALVVTTEKR | not failed
MDTAIILGLLVAVFYGVGTFFAKIVCEKNPLFQWIVVNIVGIILCLIILLKYKNIIITDQKILTYAIISAVLVVIGSLLLYYALYKGKASIVVPLSSIGPAITVALSILFLKETLTLPQMIGIVLIIIGIILLSISN | failed
MFRCQTKGWCKSLKPKVFLEFVEIKSLIASVLPFVLGSMYAYYNYHQLHLGYLLLFFIASSLFHMATNANDNYQDFLHAPRNDDNQEFLQETNVVGVNQISIGQARTITFGLAGISLIIGLWLVTQTGLPLLWMGLYSYAVGYFYAGGPKPISQGPFGEFFSGFTMGFMIFWIAVFINTYDTAAITWQSTLAVLIASGLAIFAISNIMLANNICDMDEDIALGRHTILYYLGKPVMLQVFAWSYVAGYACLVIAVLMGVLPKFSLLTLLSIIPVWKNTRVFLHKQVKRETFTISIKNATLICLSFIVFMGLGLIFN | failed
MSDLGDFADHGRDDDERGGDDDPAPADDDFDRPTLEATGSDDGLGALAVSEGLRIHEDGQETALKAYVTAGNRAAVRLGTYLVAPYPGGETLFCKITGLEYVQAFESDDATEIHARRAMRSDGVDEADYKFLAELDPVAVLSDEGDDITRRMPDRVPKPETVVRAADDAAEIKAGLKIPADGVFLGHLSVGGEKVRTAADPPTIDYRVKDGYEAGDPLVFRHTLIAGGTGSGKTHAAKNVLRQYLHEDRRYPVDSGGPERRMAVVQFDPQDEYAQMHDDNPDADASDRRQWETQGLAYGGHDDTVAFVPTVGSASYAADHHAAEQVAFTVPFSMVRDNPWLVASSGLNDNQYGALHLLLDRFFGQYGESGTYREFCAFLDDPALKEELDESGRVHEATYEAVLRRVNGMPNGLFDQDARSITALVEDREFVQPGRLSVVPTYHISNSRAAETVVLAVSSLLVDQKLSNDPRYDAIKRTPLLVGMDEAHNFLSDADSVQARKVVGKFTEAAKQGRKERLGLFLITQDPQDIAGPVFKQVNTTVVLNLGDEDAIQAVNIPATLQSKVPYMNTGQMVVYSPDNSEPVEVQGLATCVTRHGRD | failed
MTIAVDFDGTIVEHRYPRIGEEIPFAVETLKLLQQEKHRLILWSVREGELLDEAIEWCRARGLEFYAANKDYPEEERDHQGFSRKLKADLFIDDRNVGGIPDWGIIYEMIKEKKTFADIYSQQREENTSQKKKRKWLPF | not failed
MILFADYNTPYLFAISFVLLIGLLEIFALICGHMLSGALDAHLDHYDSITTGHISQALHYLNIGRLPALVVLCLLAGFFGLIGILLQHACIMVWQSPLSNLFVVPVSLLFTIIAVHYTGKIVAPWIPRDHSSAITEEEYIGSMALITGHQATSGNPCEGKLTDQFGQIHYLLLEPEEGKIFTKGDKVLIICRLSATRYLAENNPWPQIL | failed
MTAKAACSDFLHFFRSWVSNPLRVAAIAPSGDSLARIMTSEIAALDGPIIELGPGTGVFTRALLARGVSEADLTLIEYGPEFITSLQARFPTARVLQMDAAHLAHADIFEGEPVGAVVSGLPLLSMSPRKIASILAGAFAYMRPGGAVYQFTYGPRCPVPRPILDRLGLKAVRIGGTVRNLPPASVYRISRRKPLELSRERFSYRSSAADVDDVAAFSNETGG | failed
EDPGDAQVVFARLDAYIRRHLQSEIEVAALAEQAHMSTRSLYALFERQLGESPRQYIRRLRLERIRACLEDPGCRVRNLTELALDFGFAHLGRFAEQYRRQFGELPSETLRRRA | failed
MTKTVEMVITGAQVLNVYTREFEATSLWIDHGRIISNLRDEPYIAAQHVDATGQWIVPGMIDAHVHMESSMVAPSELGKVLLQHGVTTIATDPHELANVAGLEHHHHHH | failed
MQKSEGSGGTQLKNRATGNYDQRTSSSTQLKHRNAVQGSKSSLSTSSPESARKLHPRPSDKLNPKTINPFGEQSRVPSAFAAIYSKGGIPCRLVHGSVKHRLQWECPPESLSFDPLLITLAEGLRETKHPYTFVSKEGFRELLLVKGAPEKAIPLLPRLIPVLKAALVHSDDEVFERGLNALVQLSVVVGPSLNDHLKHLLTSGSLSIIKSKIPTYCSICC | failed
VKTWPAPTAPTPVRATVTVPGSKSQTNRALVLAALAAAQGRGASTISGALRSRDTELMLDALQTLGLRVDGVGSELTVSGRIEPGPGARVDCGLAGTVLRFVPPLAALGSVPVTFDGDQQARGRPIAPLLDALRELGVAVDGTGLPFRVRGNGSLAGGTVAIDASASSQFVSGLLLSAASFTDGLTVQHTGSSLPSAPHIAMTAAMLRQAGVDIDDSTPNRWQVRPGPVAARRWDIEPDLTNAVAFLSAAVVSGGTVRITGWPRVSVQPADHILAILRQLNAVVIHADSSLEVRGPTGYDGFDVDLRAVGELTPSVAALAALASPGSVSRLSGIAHLRGHETDRLAALSTEINRLGGTCRETPDGLVITATPLRPGIWRAYADHRMAMAGAIIGLRVAGVEVDDIAATTKTLPEFPRLWAEMVGPGQGWGYPQPRSGQRARRATGQGSGG | not failed
MSAEEKNLIEILEEGHKVDVVKYIDYVSAPQAGAIATFSGTTRDMFEGKTVLELRYEAYVPMATRCLSSICTTARSTWDIHKIAVAHRLGPVPVGETSVLIAVSSVHRADGLDACKFLIDELKASVPIWKKEVYTNGEIWKENSEFMEKRLELAEKRDSIVKKTVVEEHRRRGCCGSKVRVEEDEEHKDITGDNKSSS | failed
MNHLISVGALESFLVAISVLFLGHFINAKLPILKKFNIPEPIVGGLIVACIITALHFNGVDLEFDLPLQNTFMLMFFATVGLAANYTQLMKGGAKVFIFLAVASFYIIIQNGVGVSLAAALGLDPLMGLIAGSITLSGGHGTGAAWSQTFQDVYGLNNVLEIAMASATFGLIIGGIIGSPVAQRLVEKHGIESEYGRGGRDAKTHEKFPELVTYNEYEEDKVTAKKVVEKLFFLLICVTGAKYVEQWVSTYEISWLMIPDFVYALFIGVIITNFLEVTKIRKLDAETVDMLGTVSLSLFLAMALMSLKLWNIFDLAIPFLVILAIQSVILAIFTYYVTFKVMGSNYDAAVISGGHCGFGLGATPTAVMNMGSIVNRFGPSPQAFMVVPIVGAFFIDIVNLIILQGYISFLG | failed
IDFRPYGGFIFDMDGTLIDTMPAHLAAWQATADRFDFPFCQEWLHSLGGMPSFKIVAELNRHYGLSLDPQTVSKFKMETFAAMELQGDVIQCTGIVLEEYLGQKKIAVGTGSQRESAMRLLSHAGLIDRLDAVVTASDVENHKPCPDTFLLAADRLGIDAQNCLVFEDTELGKRAAHSAGMDCVMVEGNNLV | failed
MARPRKPTNVLELTGAFKKDPQRRREDAEPVGELTAPPAHINGAVLHAWKEIAKYAPRDVLTNSDRLSLELAANLLAQFRNDPLDFPAAKLVRLEAMLGKFGMTPADRSKVGGGKKDAPKGNAFAEL | failed
MSNYTESLQYLDSYISARVPVIGMRTIEQQRALRLLREAATQPRRSSMPFWIYTRATGLRDLRTNAPVQDDRSLTGAMDFAAAQFTSRANATVVFVDPDDLGGDTPITRHIAELARLADSNMGSIVLITDTPIWSGLQRLGMSLHLDLPDADEMYGILSGFLGDHHGHIPIEWDEADGRRAAEFLLGVTEAECINLMATIAAKGSIQKADVLGLAQAKDRIFSDLTGLERVQLKEADYTVGGLSSLREWLQRKHWQLHEDLRDSALRPPRGVLLVGVPGCGKSLSAKAIAHEWQLPLYRLDMGAIHGKYLGESEGRFREALAMADRVAPCVLWIDEIEKGLAGRDDGSGVPQRIIGQFLFWLQESQSRAFVVATANDIRSLPPELLRKGRFDELFFVDLPDAQDRKEIIELYYQRYLQGEPDRDQVDQLVDLSEGFAGSDIESALHDVGLEARRIGGADGLKASFLRDTFANTVPMSRVNPEQIEEIRAWGRERALPAGRSTVSAAPGGAKPSRRIVFMDD | failed
IPKHPDSEAVAPDPFNPAATQLLDDTSWVLSAWKQADGTARAVPSADQGAPITLTLSTSTGQRHASGFSGCNRYMGSYALKDGKLSFGTLGGTRMACMTPGGQIEGAYLNALTHIDRTGVQMRAPQQMQLVLDNGDTLTFDRSTR | not failed
GSSGSSGMTPLVKDIIMSSTRMPALFLGHGSPMNVLEDNLYTRSWQKLGMTLPRPQAIVVVSAHWFTRGTGVTAMETPPTIHDFGGFPQALYDTHYPAPGSPALAQRLVELLAPIPVTLDKEAWGFDHGSWGVLIKMYPDADIPMVQLSIDSSKPAAWHFEMGRKLAALRDEGIMLVASGNVVHNLRTVKWHGDSSPYPWATSFNEYVKANLTWQGPVEQHPLVNYLDHEGGTLSNPTPEHYLPLLYVLGAWDGQEPITIPVEGIEMGSLSMLSVQIG | not failed
SIVLSDPDTVADYLRFHLGQEKVEVSVALLLNRQNQLIAVRELSRGTVAENTIYIREIVKLALDEYADSLIIAHNHPGGSPEPSQEDIMFTRRLAQAMSLVDVSLLDHFIVTSQSVCSFRQLGLMP | not failed
